Measured values: patent US20090105152A1
Numbered stars: 1 amine (or outer) side, 2 acyl side, 3 side chain; on linkers, the order of the positions; unused ones are H or OH. Square brackets hold non-standard residues; d marks the D form. Asp(NHcPr) = N-omega-cyclopropylasparagine, O=C(C[C@H](N[*:1])C(=O)[*:2])NC1CC1; Phe(4-F) = N[C@@H](Cc1ccc(F)cc1)C(=O)O; Arg(Me) = CNC(=N)NCCC[C@H](N)C(=O)O; Dap(CONH2) = NC(=O)NC[C@H](N)C(=O)O; Hyp = O=C(O)[C@@H]1C[C@@H](O)CN1; NMeS = CN[C@@H](CO)C(=O)O; Aib = CC(C)(N)C(=O)O; azaGly = NNC(=O)O

B1: des(1)-Ac-[D-Tyr2,Gly3,Thr5,Phe(4F)6,AzaGly7,Arg(Me)9,Trp10]MS10 (peptide)
peptide: Ac-[dY]GNT[Phe(4-F)][azaGly]L[Arg(Me)]W-NH2
SMILES: CNC(=N)NCCC[C@H](NC(=O)[C@H](CC(C)C)NC(=O)NNC(=O)[C@H](Cc1ccc(F)cc1)NC(=O)[C@@H](NC(=O)[C@H](CC(N)=O)NC(=O)CNC(=O)[C@@H](Cc1ccc(O)cc1)NC(C)=O)[C@@H](C)O)C(=O)N[C@@H](Cc1c[nH]c2ccccc12)C(N)=O
B2: des(1)-Ac-[D-Tyr2,Aib3,Thr5,Phe(4F)6,AzaGly7,Arg(Me)9,Trp10]MS10 (peptide)
peptide: Ac-[dY][Aib]NT[Phe(4-F)][azaGly]L[Arg(Me)]W-NH2
SMILES: CNC(=N)NCCC[C@H](NC(=O)[C@H](CC(C)C)NC(=O)NNC(=O)[C@H](Cc1ccc(F)cc1)NC(=O)[C@@H](NC(=O)[C@H](CC(N)=O)NC(=O)C(C)(C)NC(=O)[C@@H](Cc1ccc(O)cc1)NC(C)=O)[C@@H](C)O)C(=O)N[C@@H](Cc1c[nH]c2ccccc12)C(N)=O
B3: des(1)-Ac-[D-Tyr2,Hyp3,Thr5,AzaGly7,Trp10]MS10 (peptide)
peptide: Ac-[dY][Hyp]NTF[azaGly]LRW-NH2
SMILES: CC(=O)N[C@H](Cc1ccc(O)cc1)C(=O)N1C[C@H](O)C[C@H]1C(=O)N[C@@H](CC(N)=O)C(=O)N[C@H](C(=O)N[C@@H](Cc1ccccc1)C(=O)NNC(=O)N[C@@H](CC(C)C)C(=O)N[C@@H](CCCNC(=N)N)C(=O)N[C@@H](Cc1c[nH]c2ccccc12)C(N)=O)[C@@H](C)O
B4: des(1)-Ac-[D-Tyr2,Hyp3,Alb4,Thr5,AzaGly7,Arg(Me)9,Trp10]MS10 (peptide)
peptide: Ac-[dY][Hyp][Dap(CONH2)]TF[azaGly]L[Arg(Me)]W-NH2
SMILES: CNC(=N)NCCC[C@H](NC(=O)[C@H](CC(C)C)NC(=O)NNC(=O)[C@H](Cc1ccccc1)NC(=O)[C@@H](NC(=O)[C@H](CNC(N)=O)NC(=O)[C@@H]1C[C@@H](O)CN1C(=O)[C@@H](Cc1ccc(O)cc1)NC(C)=O)[C@@H](C)O)C(=O)N[C@@H](Cc1c[nH]c2ccccc12)C(N)=O
B5: des(1)-Ac-[D-Tyr2,Hyp3,NMeSer5,AzaGly7,Arg(Me)9,Trp10]MS10 (peptide)
peptide: Ac-[dY][Hyp]N[NMeS]F[azaGly]L[Arg(Me)]W-NH2
SMILES: CNC(=N)NCCC[C@H](NC(=O)[C@H](CC(C)C)NC(=O)NNC(=O)[C@H](Cc1ccccc1)NC(=O)[C@H](CO)N(C)C(=O)[C@H](CC(N)=O)NC(=O)[C@@H]1C[C@@H](O)CN1C(=O)[C@@H](Cc1ccc(O)cc1)NC(C)=O)C(=O)N[C@@H](Cc1c[nH]c2ccccc12)C(N)=O
B6: des(1)-Ac-[D-Tyr2,D-Trp3,Asp(NHcPr)4,Thr5,AzaGly7,Arg(Me)9,Trp10]MS10 (peptide)
peptide: Ac-[dY][dW][Asp(NHcPr)]TF[azaGly]L[Arg(Me)]W-NH2
SMILES: CNC(=N)NCCC[C@H](NC(=O)[C@H](CC(C)C)NC(=O)NNC(=O)[C@H](Cc1ccccc1)NC(=O)[C@@H](NC(=O)[C@H](CC(=O)NC1CC1)NC(=O)[C@@H](Cc1c[nH]c2ccccc12)NC(=O)[C@@H](Cc1ccc(O)cc1)NC(C)=O)[C@@H](C)O)C(=O)N[C@@H](Cc1c[nH]c2ccccc12)C(N)=O
B7: des(1)-Ac-[D-Tyr2,Hyp3,Hyp5,AzaGly7,Arg(Me)9,Trp10]MS10 (peptide)
peptide: Ac-[dY][Hyp]N[Hyp]F[azaGly]L[Arg(Me)]W-NH2
SMILES: CNC(=N)NCCC[C@H](NC(=O)[C@H](CC(C)C)NC(=O)NNC(=O)[C@H](Cc1ccccc1)NC(=O)[C@@H]1C[C@@H](O)CN1C(=O)[C@H](CC(N)=O)NC(=O)[C@@H]1C[C@@H](O)CN1C(=O)[C@@H](Cc1ccc(O)cc1)NC(C)=O)C(=O)N[C@@H](Cc1c[nH]c2ccccc12)C(N)=O
B8: des(1)-Ac-[D-Tyr2,Hyp3,Gly5,AzaGly7,Arg(Me)9,Trp10]MS10 (peptide)
peptide: Ac-[dY][Hyp]NGF[azaGly]L[Arg(Me)]W-NH2
SMILES: CNC(=N)NCCC[C@H](NC(=O)[C@H](CC(C)C)NC(=O)NNC(=O)[C@H](Cc1ccccc1)NC(=O)CNC(=O)[C@H](CC(N)=O)NC(=O)[C@@H]1C[C@@H](O)CN1C(=O)[C@@H](Cc1ccc(O)cc1)NC(C)=O)C(=O)N[C@@H](Cc1c[nH]c2ccccc12)C(N)=O
B9: des(1)-Ac-[D-Tyr2,Hyp3,Ala5,AzaGly7,Arg(Me)9,Trp10]MS10 (peptide)
peptide: Ac-[dY][Hyp]NAF[azaGly]L[Arg(Me)]W-NH2
SMILES: CNC(=N)NCCC[C@H](NC(=O)[C@H](CC(C)C)NC(=O)NNC(=O)[C@H](Cc1ccccc1)NC(=O)[C@H](C)NC(=O)[C@H](CC(N)=O)NC(=O)[C@@H]1C[C@@H](O)CN1C(=O)[C@@H](Cc1ccc(O)cc1)NC(C)=O)C(=O)N[C@@H](Cc1c[nH]c2ccccc12)C(N)=O
B10: des(1)-Ac-[D-Tyr2,Hyp3,D-Ala5,AzaGly7,Arg(Me)9,Trp10]MS10 (peptide)
peptide: Ac-[dY][Hyp]N[dA]F[azaGly]L[Arg(Me)]W-NH2
SMILES: CNC(=N)NCCC[C@H](NC(=O)[C@H](CC(C)C)NC(=O)NNC(=O)[C@H](Cc1ccccc1)NC(=O)[C@@H](C)NC(=O)[C@H](CC(N)=O)NC(=O)[C@@H]1C[C@@H](O)CN1C(=O)[C@@H](Cc1ccc(O)cc1)NC(C)=O)C(=O)N[C@@H](Cc1c[nH]c2ccccc12)C(N)=O
B11: des(1)-Ac-[D-Tyr2,Hyp3,His4,Thr5,AzaGly7,Arg(Me)9,Trp10]MS10 (peptide)
peptide: Ac-[dY][Hyp]HTF[azaGly]L[Arg(Me)]W-NH2
SMILES: CNC(=N)NCCC[C@H](NC(=O)[C@H](CC(C)C)NC(=O)NNC(=O)[C@H](Cc1ccccc1)NC(=O)[C@@H](NC(=O)[C@H](Cc1c[nH]cn1)NC(=O)[C@@H]1C[C@@H](O)CN1C(=O)[C@@H](Cc1ccc(O)cc1)NC(C)=O)[C@@H](C)O)C(=O)N[C@@H](Cc1c[nH]c2ccccc12)C(N)=O
B12: des(1)-Ac-[D-Tyr2,Hyp3,Gln4,Thr5,AzaGly7,Arg(Me)9,Trp10]MS10 (peptide)
peptide: Ac-[dY][Hyp]QTF[azaGly]L[Arg(Me)]W-NH2
SMILES: CNC(=N)NCCC[C@H](NC(=O)[C@H](CC(C)C)NC(=O)NNC(=O)[C@H](Cc1ccccc1)NC(=O)[C@@H](NC(=O)[C@H](CCC(N)=O)NC(=O)[C@@H]1C[C@@H](O)CN1C(=O)[C@@H](Cc1ccc(O)cc1)NC(C)=O)[C@@H](C)O)C(=O)N[C@@H](Cc1c[nH]c2ccccc12)C(N)=O

Biological target: human OT7T175 (metastin receptor) (human) (UniProt Q969F8)
Sequence (Q969F8 whole entry L364H): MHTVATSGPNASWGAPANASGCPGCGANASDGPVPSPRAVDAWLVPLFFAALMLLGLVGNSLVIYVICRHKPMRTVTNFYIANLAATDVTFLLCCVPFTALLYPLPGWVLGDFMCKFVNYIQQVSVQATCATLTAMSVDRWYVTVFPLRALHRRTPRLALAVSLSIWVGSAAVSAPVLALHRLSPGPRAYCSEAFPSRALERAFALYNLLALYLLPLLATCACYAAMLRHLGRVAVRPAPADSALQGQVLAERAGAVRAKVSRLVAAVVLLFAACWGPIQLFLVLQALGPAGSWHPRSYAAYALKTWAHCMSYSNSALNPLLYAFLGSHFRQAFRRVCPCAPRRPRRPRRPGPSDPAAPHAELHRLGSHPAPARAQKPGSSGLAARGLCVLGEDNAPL
Test: cell-based or functional assay

Row | Binder | intracellular Ca ion level-increasing activity [specific activity to Metastin (1-54)] (relative to Metastin (1-54))
1 | B1 | 2.3
2 | B2 | 2.9
3 | Ac-[dY][Hyp]NT[dF][azaGly]L[Arg(Me)]W-NH2 [des(1)-Ac-[D-Tyr2,Hyp3,Thr5,D-Phe6,AzaGly7,Arg(Me)9,Trp10]MS10] | 2.3
4 | B3 | 1.4
5 | B4 | 0.8
6 | {4‑(bis-(2-pyridylmethyl)aminomethyl)benzoyl}-F[azaGly]L[Arg(Me)]W-NH2 [des(1-5)-4-[Bis-(2-Pyridylmethyl)aminomethyl]benzoyl-[AzaGly7,Arg(Me)9,Trp10]MS10] | 11.1
7 | B5 | 1
8 | B6 | 1.6
9 | B7 | 1.5
10 | B8 | 0.5
11 | B9 | 0.5
12 | B10 | 0.5
13 | B11 | 1.1
14 | B12 | 0.8
15 | Ac-[dY][Hyp][dN]TF[azaGly]L[Arg(Me)]W-NH2 [des(1)-Ac-[D-Tyr2,Hyp3,D-Asn4,Thr5,AzaGly7,Arg(Me)9,Trp10]MS10] | 0.9
